This data set deals with the molecule itself. Put plainly: SEC.

B1: VVD-36 M135I:M165I (domain or fragment, UniProt Q9C3Y6 37-186, looked up)
chain: HTLYAPGGYDIMGYLIQIMNRPNPQVELGPVDTSCALILCDLKQKDTPIVYASEAFLYMTGYSNAEVLGRNCRFLQSPDGMVKPKSTRKYVDSNTINTIRKAIDRNAEVQVEVVNFKKNGQRFVNFLTIIPVRDETGEYRYSMGFQCETE
For the protein B1, the “fold increase in dimer affinity (against VVD-36)” value is > 5 fold.

The values above are taken from article PMC2865183 (Nature chemical biology, 2009).
